EC50 data for 16 molecules are collected here from US20230250189A1 (HEIDELBERG PHARMA RESEARCH, published 2023).

Experiment [1] deals with T1, Prostate specific membrane antigen (PSMA) (human, UniProt Q04609 1-750).
T1 construct: whole, on cells; The background says that PSMA is a homodimer when enzymatically active; also called glutamate carboxypeptidase II; GCPII
As to the kind of experiment: flow cytometry on LNCAP cells, FITC anti-human IgG. The protocol: (§1) Pre-confluent LNCAP cells at 80-90% confluence were washed and detached from the plates with trypsin prior to 1-hour incubation at 37° C., 5% CO₂ in the flasks to restore cell surface proteins. Cells were washed and adjusted to 1×10₆ cells/ml in staining media (RPMI-1640, 25 mM HEPES, 3% h.i. FBS and 0.02% sodium azide). Various concentrations of the monoclonal antibody samples (murine wt and 16 humanized variants) ranging from 50 to 0.0032 μg/ml were prepared in staining media and incubated with the cells in pre-cooled 96-well plates for 30 min. on ice to allow antibody binding to the LNCAP cell surface. Subsequently, cells were washed at 4° C. with PBS to remove free antibody, and bound antibody was labelled with FITC goat anti-human IgG H&L preabsorbed (Abcam) secondary antibody for 30 min. on ice. Finally, cells were washed, fixed and FITC fluorescence associated to the antibody bound to the cells was measured by flow cytometry (GUAVA 8HT Cytometer). Data was analyzed using Incyte GuavaSoft 2.7 software (Merck-Millipore). The obtained dose-response data (plotted as log-transformed dose vs. response) typically produced sigmoidal curves with variable slope which were fitted to a 4-parameter logistic dose-response equation using GraphPad Prism software. The EC₅₀ dose, defined as the concentration of antibody that provides half of maximal target cell binding, was used to compare the bioactivity of different antibody variants. Data points represent the average of duplicate wells and standard error of the mean (SEM).
On the technique in general: A flow cytometer gives signals particle by particle.

Experiment [2] concerns the target T1, Prostate specific membrane antigen …. As to the kind of experiment: flow cytometry on LNCAP cells, FITC anti-human IgG. The method, then: as §1
The source holds these as a separate data set.

Read-outs that look alike come from different tables or passages of the source.

T1 sequence (Q04609 whole entry): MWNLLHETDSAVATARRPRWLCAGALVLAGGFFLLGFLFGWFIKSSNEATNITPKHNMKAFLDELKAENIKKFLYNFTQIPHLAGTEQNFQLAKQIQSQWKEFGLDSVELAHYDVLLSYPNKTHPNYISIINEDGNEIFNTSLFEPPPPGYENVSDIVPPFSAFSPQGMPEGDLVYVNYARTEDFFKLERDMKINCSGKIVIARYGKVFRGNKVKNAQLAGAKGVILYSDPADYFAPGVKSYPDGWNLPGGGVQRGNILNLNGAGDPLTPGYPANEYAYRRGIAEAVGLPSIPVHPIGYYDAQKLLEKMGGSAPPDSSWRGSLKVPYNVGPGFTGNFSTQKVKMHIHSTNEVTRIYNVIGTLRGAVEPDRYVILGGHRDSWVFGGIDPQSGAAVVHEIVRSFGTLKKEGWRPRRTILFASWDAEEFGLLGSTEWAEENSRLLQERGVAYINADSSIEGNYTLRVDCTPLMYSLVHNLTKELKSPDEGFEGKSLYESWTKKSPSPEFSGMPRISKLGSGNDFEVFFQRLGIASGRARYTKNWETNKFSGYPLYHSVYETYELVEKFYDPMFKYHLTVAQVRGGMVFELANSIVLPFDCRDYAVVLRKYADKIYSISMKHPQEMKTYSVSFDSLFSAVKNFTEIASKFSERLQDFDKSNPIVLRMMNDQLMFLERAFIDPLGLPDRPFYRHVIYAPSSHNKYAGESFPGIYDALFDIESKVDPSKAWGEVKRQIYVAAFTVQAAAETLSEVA

B1: 3F11-var 6 (antibody, human IgG1, kappa, V domains shown)
VH: QVQLVQSGAEVKKPGASVKVSCKASGYTFTYFDINWLRQAPGQGLEWMGGISPGDGNTNYAQKFQGRVTLTIDTSTSTAYMELSSLRSEDTAVYYCARDGNFPYYAMDSWGQGTLVTVSS
VL: DIVMTQSPLSLPVTPGEPASISCRSSQSLVHSNGQTYLHWYLQKPGQSPQLLIYTVSNRFSGVPDRFSGSGSGTDFTLKISRVEAEDVGVYYCSQSTHVPTFGGGTKVEIKR
notes: Expressed from pXC-IgG1zadeltaK and pXC-Kappa vectors
Consider B1, for which the EC50 in experiment [1] and in experiment [2] was 0.219 µg/mL in each case.

B2: 3F11-var 13 (antibody, human IgG1, kappa, V domains shown)
VH: QVQLVQSGAEVKKPGASVKVSCKASGYTFTYFDINWLRQAPGQGLEWMGGISPGDGNTNYNENFKGRVTLTIDKSTSTAYMELSSLRSEDTAVYFCARDGNFPYYAMDSWGQGTLVTVSS
VL: DIVMTQSPLSLPVTPGEPASISCRSSQSLVHSSGQTYLHWYQQKPGQSPQLLIYTVSNRASGVPDRFSGSGSGTDFTLKISRVEAEDVGTYYCSQSTHVPTFGGGTKVEIKR
notes: as for B1
Consider B2, for which the EC50 in experiment [1] and in experiment [2] was 0.25 µg/mL each time.

B3: 3F11-var 10 (antibody, human IgG1, kappa, V domains shown)
VH: QVQLVQSGAEVKKPGASVKVSCKASGYTFTYFDINWLRQAPGQGLEWMGGISPGDGNTNYAQKFQGRVTLTIDTSTSTAYMELSSLRSEDTAVYYCARDGNFPYYAMDSWGQGTLVTVSS
VL: DIVMTQSPLSLPVTPGEPASISCRSSQSLVHSSGQTYLHWYLQKPGQSPQLLIYTVSNRFSGVPDRFSGSGSGTDFTLKISRVEAEDVGVYYCSQSTHVPTFGGGTKVEIKR
notes: as for B1
As to B3, the EC50 in experiment [1] and in experiment [2] was 0.284 µg/mL each time.

B4: 3F11-var 15 (antibody, human IgG1, kappa, V domains shown)
VH: QVQLVQSGAEVKKPGASVKVSCKASGYTFTYFDINWLRQAPGQGLEWMGGISPGDGNVNYAQKFQGRVTLTIDTSTSTAYMELSSLRSEDTAVYYCARDGNFPYYAMDSWGQGTLVTVSS
VL: DIVMTQSPLSLPVTPGEPASISCRSSQSLVHSSGQTYLHWYQQKPGQSPQLLIYTVSNRASGVPDRFSGSGSGTDFTLKISRVEAEDVGTYYCSQSTHVPTFGGGTKVEIKR
notes: as for B1
In the case of B4, the EC50 in experiment [1] and in experiment [2] was 0.244 µg/mL in each case.

B5: 3F11-var 16 (antibody, human IgG1, kappa, V domains shown)
VH: QVQLVQSGAEVKKPGASVKVSCKASGYTFTYFDINWLRQAPGQGLEWMGGISPGDSNVNYAQKFQGRVTLTIDTSTSTAYMELSSLRSEDTAVYYCARDGNFPYYAMDSWGQGTLVTVSS
VL: DIVMTQSPLSLPVTPGEPASISCRSSQSLVHSSGQTYLHWYQQKPGQSPQLLIYTVSNRASGVPDRFSGSGSGTDFTLKISRVEAEDVGTYYCSQSTHVPTFGGGTKVEIKR
notes: as for B1
On to B5, for which the EC50 in experiment [1] and in experiment [2] was 0.248 µg/mL throughout.

B6: 3F11-var 8 (antibody, human IgG1, kappa, V domains shown)
VH: QVQLVQSGAEVKKPGASVKVSCKASGYTFTYFDINWLRQAPGQGLEWMGGISPGDSNVNYAQKFQGRVTLTIDTSTSTAYMELSSLRSEDTAVYYCARDGNFPYYAMDSWGQGTLVTVSS
VL: DIVMTQSPLSLPVTPGEPASISCRSSQSLVHSNGQTYLHWYLQKPGQSPQLLIYTVSNRFSGVPDRFSGSGSGTDFTLKISRVEAEDVGVYYCSQSTHVPTFGGGTKVEIKR
notes: as for B1
Take B6: the EC50 in experiment [1] and in experiment [2] was 0.204 µg/mL throughout.

B7: 3F11-var 4 (antibody, human IgG1, kappa, V domains shown)
VH: QVQLVQSGAEVKKPGASVKVSCKASGYTFTYFDINWLRQAPGQGLEWMGGISPGDSNVNYAQKFQGRVTLTIDTSTSTAYMELSSLRSEDTAVYYCARDGNFPYYAMDSWGQGTLVTVSS
VL: DIVMTQSPLSLPVTPGEPASISCRSSQSLVHSNGNTYLHWFLQKPGQSPQLLIYTVSNRFSGVPDRFSGSGSGTDFTLKISRVEAEDVGVYFCSQSTHVPTFGGGTKVEIKR
notes: as for B1
As for B7, the EC50 in experiment [1] and in experiment [2] was 0.373 µg/mL throughout.

B8: 3F11-var 14 (antibody, human IgG1, kappa, V domains shown)
VH: QVQLVQSGAEVKKPGASVKVSCKASGYTFTYFDINWLRQAPGQGLEWMGGISPGDGNTNYAQKFQGRVTLTIDTSTSTAYMELSSLRSEDTAVYYCARDGNFPYYAMDSWGQGTLVTVSS
VL: DIVMTQSPLSLPVTPGEPASISCRSSQSLVHSSGQTYLHWYQQKPGQSPQLLIYTVSNRASGVPDRFSGSGSGTDFTLKISRVEAEDVGTYYCSQSTHVPTFGGGTKVEIKR
notes: as for B1
Consider B8, for which the EC50 in experiment [1] and in experiment [2] was 0.272 µg/mL throughout.

B9: 3F11-var 3 (antibody, human IgG1, kappa, V domains shown)
VH: QVQLVQSGAEVKKPGASVKVSCKASGYTFTYFDINWLRQAPGQGLEWMGGISPGDGNVNYAQKFQGRVTLTIDTSTSTAYMELSSLRSEDTAVYYCARDGNFPYYAMDSWGQGTLVTVSS
VL: DIVMTQSPLSLPVTPGEPASISCRSSQSLVHSNGNTYLHWFLQKPGQSPQLLIYTVSNRFSGVPDRFSGSGSGTDFTLKISRVEAEDVGVYFCSQSTHVPTFGGGTKVEIKR
notes: as for B1
As for B9, the EC50 in experiment [1] and in experiment [2] was 0.264 µg/mL in each case.

B10: 3F11-var 12 (antibody, human IgG1, kappa, V domains shown)
VH: QVQLVQSGAEVKKPGASVKVSCKASGYTFTYFDINWLRQAPGQGLEWMGGISPGDSNVNYAQKFQGRVTLTIDTSTSTAYMELSSLRSEDTAVYYCARDGNFPYYAMDSWGQGTLVTVSS
VL: DIVMTQSPLSLPVTPGEPASISCRSSQSLVHSSGQTYLHWYLQKPGQSPQLLIYTVSNRFSGVPDRFSGSGSGTDFTLKISRVEAEDVGVYYCSQSTHVPTFGGGTKVEIKR
notes: as for B1
B10: the EC50 in experiment [1] and in experiment [2] was 0.329 µg/mL each time.

B11: 3F11-var 1 (antibody, human IgG1, kappa, V domains shown)
VH: QVQLVQSGAEVKKPGASVKVSCKASGYTFTYFDINWLRQAPGQGLEWMGGISPGDGNTNYNENFKGRVTLTIDKSTSTAYMELSSLRSEDTAVYFCARDGNFPYYAMDSWGQGTLVTVSS
VL: DIVMTQSPLSLPVTPGEPASISCRSSQSLVHSNGNTYLHWFLQKPGQSPQLLIYTVSNRFSGVPDRFSGSGSGTDFTLKISRVEAEDVGVYFCSQSTHVPTFGGGTKVEIKR
notes: as for B1
On to B11, for which the 50% effective concentration (EC50) in experiment [1] and in experiment [2] was 0.29 µg/mL in each case.

B12: 3F11-var 2 (antibody, human IgG1, kappa, V domains shown)
VH: QVQLVQSGAEVKKPGASVKVSCKASGYTFTYFDINWLRQAPGQGLEWMGGISPGDGNTNYAQKFQGRVTLTIDTSTSTAYMELSSLRSEDTAVYYCARDGNFPYYAMDSWGQGTLVTVSS
VL: DIVMTQSPLSLPVTPGEPASISCRSSQSLVHSNGNTYLHWFLQKPGQSPQLLIYTVSNRFSGVPDRFSGSGSGTDFTLKISRVEAEDVGVYFCSQSTHVPTFGGGTKVEIKR
notes: as for B1
On to B12, for which the EC50 in experiment [1] and in experiment [2] was 0.273 µg/mL in each case.

B13: 3F11-var 5 (antibody, human IgG1, kappa, V domains shown)
VH: QVQLVQSGAEVKKPGASVKVSCKASGYTFTYFDINWLRQAPGQGLEWMGGISPGDGNTNYNENFKGRVTLTIDKSTSTAYMELSSLRSEDTAVYFCARDGNFPYYAMDSWGQGTLVTVSS
VL: DIVMTQSPLSLPVTPGEPASISCRSSQSLVHSNGQTYLHWYLQKPGQSPQLLIYTVSNRFSGVPDRFSGSGSGTDFTLKISRVEAEDVGVYYCSQSTHVPTFGGGTKVEIKR
notes: as for B1
For B13, the EC50 in experiment [1] and in experiment [2] was 0.304 µg/mL each time.

B14: 3F11-var 9 (antibody, human IgG1, kappa, V domains shown)
VH: QVQLVQSGAEVKKPGASVKVSCKASGYTFTYFDINWLRQAPGQGLEWMGGISPGDGNTNYNENFKGRVTLTIDKSTSTAYMELSSLRSEDTAVYFCARDGNFPYYAMDSWGQGTLVTVSS
VL: DIVMTQSPLSLPVTPGEPASISCRSSQSLVHSSGQTYLHWYLQKPGQSPQLLIYTVSNRFSGVPDRFSGSGSGTDFTLKISRVEAEDVGVYYCSQSTHVPTFGGGTKVEIKR
notes: as for B1
Consider B14, for which the EC50 in experiment [1] and in experiment [2] was 0.281 µg/mL each time.

B15: 3F11-var 7 (antibody, human IgG1, kappa, V domains shown)
VH: QVQLVQSGAEVKKPGASVKVSCKASGYTFTYFDINWLRQAPGQGLEWMGGISPGDGNVNYAQKFQGRVTLTIDTSTSTAYMELSSLRSEDTAVYYCARDGNFPYYAMDSWGQGTLVTVSS
VL: DIVMTQSPLSLPVTPGEPASISCRSSQSLVHSNGQTYLHWYLQKPGQSPQLLIYTVSNRFSGVPDRFSGSGSGTDFTLKISRVEAEDVGVYYCSQSTHVPTFGGGTKVEIKR
notes: as for B1
On to B15, for which the EC50 in experiment [1] and in experiment [2] was 0.178 µg/mL throughout.

B16: 3F11-var 11 (antibody, human IgG1, kappa, V domains shown)
VH: QVQLVQSGAEVKKPGASVKVSCKASGYTFTYFDINWLRQAPGQGLEWMGGISPGDGNVNYAQKFQGRVTLTIDTSTSTAYMELSSLRSEDTAVYYCARDGNFPYYAMDSWGQGTLVTVSS
VL: DIVMTQSPLSLPVTPGEPASISCRSSQSLVHSSGQTYLHWYLQKPGQSPQLLIYTVSNRFSGVPDRFSGSGSGTDFTLKISRVEAEDVGVYYCSQSTHVPTFGGGTKVEIKR
notes: as for B1
For B16, the EC50 in experiment [1] and in experiment [2] was 0.339 µg/mL in each case.

What is called EC50 is the concentration needed to bring the measured effect to its halfway point. The low end stands for a more potent agent, the high end for a less potent agent.
